Read-outs that look alike come from different tables or passages of the source. Blank lines part the entries; values can stand above or below the binder they belong to.
How the values were obtained:
crystal structure [1] = biological target: the molecule itself; assay: crystal structure
crystal structure [2] = biological target: the molecule itself; assay: crystal structure; remark: listed apart in the source
[3] = biological target: T1, full-length GluD2 (GluD2FL) (human, UniProt O43424 24-1007); assay: SPR
T1 sequence (looked up): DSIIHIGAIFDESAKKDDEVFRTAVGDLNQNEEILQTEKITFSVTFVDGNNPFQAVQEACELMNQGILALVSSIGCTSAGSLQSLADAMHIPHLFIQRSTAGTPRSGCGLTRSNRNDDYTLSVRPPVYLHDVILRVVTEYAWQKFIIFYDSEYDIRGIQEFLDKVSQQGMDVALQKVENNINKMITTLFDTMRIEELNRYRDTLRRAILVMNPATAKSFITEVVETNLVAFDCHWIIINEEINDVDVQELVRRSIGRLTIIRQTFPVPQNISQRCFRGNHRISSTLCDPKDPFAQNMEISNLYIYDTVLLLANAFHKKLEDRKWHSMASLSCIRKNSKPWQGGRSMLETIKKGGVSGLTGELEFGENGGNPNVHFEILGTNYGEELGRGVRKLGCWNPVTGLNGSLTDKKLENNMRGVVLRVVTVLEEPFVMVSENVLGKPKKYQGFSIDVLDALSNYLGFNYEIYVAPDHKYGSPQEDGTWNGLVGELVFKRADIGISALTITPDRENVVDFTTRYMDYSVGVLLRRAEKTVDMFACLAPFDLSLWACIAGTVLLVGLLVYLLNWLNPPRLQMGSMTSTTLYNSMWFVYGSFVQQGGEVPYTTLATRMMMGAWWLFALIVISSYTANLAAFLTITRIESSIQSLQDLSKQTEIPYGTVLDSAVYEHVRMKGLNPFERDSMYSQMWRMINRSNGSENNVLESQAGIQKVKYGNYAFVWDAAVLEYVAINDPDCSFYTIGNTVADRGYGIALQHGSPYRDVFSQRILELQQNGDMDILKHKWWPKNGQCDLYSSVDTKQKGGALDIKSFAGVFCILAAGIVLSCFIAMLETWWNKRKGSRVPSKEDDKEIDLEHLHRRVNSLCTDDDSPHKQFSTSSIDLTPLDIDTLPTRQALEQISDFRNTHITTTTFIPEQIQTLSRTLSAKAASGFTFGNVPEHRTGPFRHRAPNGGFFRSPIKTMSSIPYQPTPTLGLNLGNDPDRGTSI

B1: GluD2 amino-terminal domain (GluD2ATD) (domain or fragment, human)
chain: DSIIHIGAIFDESAKKDDEVFRTAVGDLNQNEEILQTEKITFSVTFVDGNNPFQAVQEACELMNQGILALVSSIGCTSAGSLQSLADAMHIPHLFIQRSTAGTPRSGCGLTRSNRNDDYTLSVRPPVYLHDVILRVVTEYAWQKFIIFYDSEYDIRGIQEFLDKVSQQGMDVALQKVENNINKMITTLFDTMRIEELNRYRDTLRRAILVMNPATAKSFITEVVETNLVAFDCHWIIINEEINDVDVQELVRRSIGRLTIIRQTFPVPQNISQRCFRGNHRISSTLCDPKDPFAQNMEISNLYIYDTVLLLANAFHKKLEDRKWHSMASLSCIRKNSKPWQGGRSMLETIKKGGVSGLTGELEFGENGGNPNVHFEILGTNYGEELGRGVRKLGCWNPVTGLNGSLTDKKLENNMRG
stoichiometry N (crystal structure [1]): 4
stoichiometry N (crystal structure [2]): 2

B2: mouse GluD1 amino-terminal domain (GluD1ATD) (domain or fragment)
chain: DSIIHIGAIFEENAAKDDRVFQLAVSDLSLNDDILQSEKITYSIKVIEANNPFQAVQEACDLMTQGILALVTSTGCASANALQSLTDAMHIPHLFVQRNPGGSPRTACHLNPSPDGEAYTLASRPPVRLNDVMLRLVTELRWQKFVMFYDSEYDIRGLQSFLDQASRLGLDVSLQKVDKNISHVFTSLFTTMKTEELNRYRDTLRRAILLLSPQGAHSFINEAVETNLASKDSHWVFVNEEISDPEILDLVHSALGRMTVVRQIFPSAKDNQKCMRNNHRISSLLCDPQEGYLQMLQISNLYLYDSVLMLANAFHRKLEDRKWHSMASLNCIRKSTKPWNGGRSMLDTIKKGHITGLTGVMEFREDSSNPYVQFEILGTTYSETFGKDMRKLATWDSEKGLNGSLQERPMGSRLQG
stoichiometry N (crystal structure [2]): 2

Kd [3]: ~125 nM
B3: full-length Cbln1 (Cbln1FL) (natural protein, human, UniProt P23435 22-193, looked up)
chain: QNETEPIVLEGKCLVVCDSNPTSDPTGTALGISVRSGSAKVAFSAIRSTNHEPSEMSNRTMIIYFDQVLVNIGNNFDSERSTFIAPRKGIYSFNFHVVKVYNRQTIQVSLMLNGWPVISAFAGDQDVTREAASNGVLIQMEKGDRAYLKLERGNLMGGWKYSTFSGFLVFPL
